Test results taken from patent US20180016324A1 (Regeneron, published 2018).

Assays:
[1] = target: T1, ZIKV (prM80E) with a C-terminal myc-myc-hexahistidine tag (Zika virus, UniProt A0A024B7W1 104-694); assay: SPR, mAb captured, 37C
T1 construct: also called ZIKV (prM80E)-mmH; ZIKV-mmH

[2] = target: T1, ZIKV (prM80E) with a C-terminal …; assay: SPR, mAb captured, 25C
[3] = target: T1, ZIKV (prM80E) with a C-terminal …; assay: SPR, mAb captured, 37C; remark: listed apart in the source
[4] = target: T2, ZIKV prM/E polyprotein on virus-like particles (VLPs) from HEK293T/17 cells (Zika virus, UniProt A0A024B7W1 123-795); assay: MSD ECL, VLPs on plate
T2 construct: also called ZIKV prM/E VLPs; Zika prM/E VLPs

[5] = target: T1, ZIKV (prM80E) with a C-terminal …; assay: SPR, mAb captured, 37C, pH 6.0 chase
[6] = target: T1, ZIKV (prM80E) with a C-terminal …; assay: SPR, mAb captured, 37C, pH 5.0 chase
[7] = target: ZIKV envelope glycoprotein (E) of strain FLR (Colombia 2015) (Zika virus); assay: cell-based or functional assay
[8] = target: T1, ZIKV (prM80E) with a C-terminal …; assay: SPR, mAb captured, 37C, pH 7.4
[9] = target: T1, ZIKV (prM80E) with a C-terminal …; assay: SPR, mAb captured, 37C; remark: listed apart in the source
[10] = target: T1, ZIKV (prM80E) with a C-terminal …; assay: SPR, mAb captured, 37C, pH 5.5 chase
[11] = target: ZIKV envelope glycoprotein (E) of strain MR766 (Uganda 1947) (Zika virus, UniProt Q32ZE1 291-790); assay: cell-based or functional assay
[12] = target: ZIKV envelope glycoprotein (E) of strain PRVABC59 (Puerto Rico 2015) (Zika virus); assay: cell-based or functional assay

Binder	t½ pH 7.4/t½ pH 6.0 [1]	Kd [2] [pM]	koff [2] [s⁻¹]	kon [2] [M⁻¹ s⁻¹]	t½ [2] [min]	t½ pH 7.4/t½ pH 5.0 [3]	t½ pH 7.4/t½ pH 5.5 [3]	EC50 [4] [pM]	koff [5] [s⁻¹]	t½ [5] [min]	koff [6] [s⁻¹]	t½ [6] [min]	neutralization IC50, Vero cells [7] [pM]	koff [8] [s⁻¹]	Kd [9] [pM]	koff [9] [s⁻¹]	kon [9] [M⁻¹ s⁻¹]	t½ [9] [min]	neutralization IC50, Vero cells [11] [pM]	neutralization IC50, Vero cells [12] [pM]	further results
H4H25566P (antibody, V domains shown) VH: QVQLQESGPGLVKPSQTLSLTCTVSGGSISSGGYYWSWIRQHPGKGLEWIGYIYYSGSTYYNPSLKSRITISIDTSKNQFSLKLTSVTAADTAVYYCARGQQLLSFDYWGQGTLVTVSS VL: DIQMTQSPSSVSASVGDRVTITCRASQGISRWLAWYQLKPGKPPTPLIYAASSLQSGAPSRFSGRGSGTDFTLTISSLQPEDFATYYCQQANSFPYTFGQGTKLEIK	5.5	27700	0.0163	590000	0.7	6.8	7.2	820	0.299	0.04	0.368	0.03	1550	0.0542	52500	0.036	687000	0.3	–	–	t½ [8]: 0.21 min; koff [10]: 0.392 s⁻¹; t½ [10]: 0.03 min
H4H25708N (antibody, V domains shown) VH: EVQLLESGGDLVQPGGSLRLSCAASGFTFSSYAMSWVRQAPGKGLEWVSAISVSGDSTYYADSVKGRFTISRDNSKNTLYLQMNSLRAEDTAVYYCAKDRGYTWNYYYYGMDVWGQGTTVTVSS VL: not shown	0.6	1210	0.000504	417000	22.9	0.5	0.6	133000	0.00144	8.02	0.00129	8.9	–	0.0026	2970	0.00232	781000	5	349	–	t½ [8]: 4.45 min; koff [10]: 0.00157 s⁻¹; t½ [10]: 7.37 min
H4H25633P (antibody, V domains shown) VH: EVQLVESGGGLVQPGRSLRLSCAASGFTFDDYAIHWVRQAPGKGLEWVSGISWNSGYLGYADSVKGRFTISRDNAKNSLYLQMNSLRAEDTAFYYCAKDVAWGSVRHVFEIWGQGTMVTVSS VL: EIVLTQSPGTLSLSPGERATLSCRASQTITGNQLAWYQQKPGQAPRLLIYFTSSRATGIPDRFSGSGSGTDFSLTISRLEPEDFAVYFCQQFGYSPWTFGQGTKVEIK	–	1950	0.000802	411000	14.4	–	–	400	–	–	–	–	440	–	7390	0.00501	678000	2.3	102	652	–
H4H25630P (antibody, V domains shown) VH: QVQLVQSGAEVKRPGASVKVSCKASDYTFTDYGISWVRQAPGQGLEWMGWFNTYNGNTNYAQKFQGRITMTTDTSTSTAYMELRSLRSDDTAIYYCARDWGLHYFENWGQGTLVTVSS VL: EIVLTQSPGTLSLSPGERATLSCRASQSVRNSYLAWYQQKPGQAPRLLIYGASSRDTGIPDRFSGSGSGTDFTLTISRLEPEDFAVYYCQQYGRSPWTFGQGTKVEIK	–	210	0.00035	1.67e+06	33	–	–	217	–	–	–	–	283	–	1160	0.00229	1.98e+06	5.1	147	539	–
H4H25587P (antibody, V domains shown) VH: EVQLVESGGGLVQPGRSLTLSCAASGFTFDDYVMHWVRQAPGKGLEWVSGISWNSDTIDYADSVKGRFTISRDNAKNSLYLQMNSLRAEDTALYYCAKDRRSWYGGYFDYWGQGTLVTVSS VL: DIQMTQSPSSLSASVGDRVTITCRASQGISSYLAWYQQKPGKVPKLLIYAASTLQSGVPSRFSGSGSGTDFSLTISSLQPEDVATYYCQKYNSAPLTFGGGTKVEIK	0.8	5130	0.00422	822000	2.7	1	1	145	0.0151	0.77	0.0177	0.7	955	0.018	13200	0.0145	1.1e+06	0.8	150	321	t½ [8]: 0.64 min; koff [10]: 0.0174 s⁻¹; t½ [10]: 0.66 min
H4H25591P (antibody, V domains shown) VH: QVQLVESGGGVVQPGRSLRLSCAASGFTFSYSGMHWVRQAPGKGLEWVAVISYDGINKYYADSVKGRFTISRDNSKNTLYLQMNSLRPEDTAVYYCAKDRGGRFDPWGQGTLVTVSS VL: DIQMTQSPSSLSASVGDRVTITCRASQGISNYLAWYQQKPGKVPNLLIYGASTLHSGVPSRFSGSGSGTDFTLTISSLQPADVATYYCQKYNSAPLTFGGGTKVEIK	2.2	4900	0.00318	649000	3.6	2.4	2.9	102	0.0136	0.85	0.0148	0.8	330	0.0063	8370	0.00682	816000	1.7	34.3	254	t½ [8]: 1.83 min; koff [10]: 0.0184 s⁻¹; t½ [10]: 0.63 min
H4H25626P (antibody, V domains shown) VH: QVQLVESGGGVVQPGRSLRLSCAASGFTFSSYGMHWVRQAPGKGLEWVALIWYDGSDKHYVDSMKGRFTISRDNSKNTLYLQMNSLRADDTAVYYCARQAYYFYYGMDVWGQGTTVTVSS VL: not shown	–	6170	0.000905	147000	12.8	–	–	1590	–	–	–	–	1090	–	6180	0.00187	303000	6.2	159	1170	–
H4H25710N (antibody, V domains shown) VH: EVQLLESGGGLVQPGGSLRLSCAASGFTVSNNYMSWVRQAPGKGLEWVSVIYSGGRTNYGDSVKGRFTISRDNSKNTLYLQMNSLRAEDTAVYYCARENYDFWSGDPYGWDVWGQGTTVTVSS VL: DIQMTQSPSSLSASVGDRVTITCRASQDISNYLAWFQQKPGKAPKSLIYGASSLQRGVPSKFRGSGSGTDFTLTISSLQPEDFASYYCQQYNSYPYTFGQGTKLEIK	24	6990	0.00209	299000	5.5	62.6	33.4	542	0.13	0.09	0.339	0.03	1060	0.00541	12400	0.0064	519000	1.8	47.1	1240	t½ [8]: 2.14 min; koff [10]: 0.181 s⁻¹; t½ [10]: 0.06 min
H2aM25711N (antibody, V domains shown) VH: EVQLVESGGGLVQPGGSLRLSCAASGFTVSSNYMSWVRQAPGKGLEWVSVIYSGGRTNYGDSVKGRFTISRDNSKNTLYLQMNSLRAEDTAVYYCARENYDFWSGDPYGWDVWGQGTTVTVSS VL: DIQMTQSPSSLSASVGDRVTITCRASQDISNYLAWFQQKPGKAPKSLIYGASSLQRGVPSKFSGSGSGTDFTLTISSLQPEDFATYYCQQYNSYPYTFGQGTKLEIK	–	–	–	–	–	–	–	468	–	–	–	–	–	–	–	–	–	–	–	–	–
H2aM25709N (antibody, V domains shown) VH: EVQLVESGGGLVQPGGSLRLSCAASGFTVSSNYMSWVRQAPGKGLEWVSVIYSGGRTNYGDSVKGRFTISRDNSKNTLYLQMNSLRAEDTAVYYCARENYDFWSGDPYGWDVWGQGTTVTVSS VL: DIQMTQSPSSLSASVGDRVTITCRASQDISNYLAWFQQKPGKAPKSLIYGASSLQRGVPSKFSGSGSGTDFTLTISSLQPEDFATYYCQQYNSYPYTFGQGTKLEIK	–	–	–	–	–	–	–	362	–	–	–	–	–	–	–	–	–	–	–	–	–
